Data from the supplement of paper PMC10065799, “High-throughput profiling of sequence recognition by tyrosine kinases and SH2 domains using bacterial peptide display” (eLife, 2023).

How the values were obtained:
AncSZ = assay: phosphorylation enrichment, bacterial display (enrichment ratio); higher = better substrate or ligand; peptides without Tyr show the background
EPHB1 = EPHB1 (UniProt P54762); assay: as above
EPHB2 = EPHB2 (UniProt P29323); assay: as above
FGFR1 = FGFR1 (UniProt P11362); assay: as above
Sequence of FGFR1 (P11362 whole entry, looked up): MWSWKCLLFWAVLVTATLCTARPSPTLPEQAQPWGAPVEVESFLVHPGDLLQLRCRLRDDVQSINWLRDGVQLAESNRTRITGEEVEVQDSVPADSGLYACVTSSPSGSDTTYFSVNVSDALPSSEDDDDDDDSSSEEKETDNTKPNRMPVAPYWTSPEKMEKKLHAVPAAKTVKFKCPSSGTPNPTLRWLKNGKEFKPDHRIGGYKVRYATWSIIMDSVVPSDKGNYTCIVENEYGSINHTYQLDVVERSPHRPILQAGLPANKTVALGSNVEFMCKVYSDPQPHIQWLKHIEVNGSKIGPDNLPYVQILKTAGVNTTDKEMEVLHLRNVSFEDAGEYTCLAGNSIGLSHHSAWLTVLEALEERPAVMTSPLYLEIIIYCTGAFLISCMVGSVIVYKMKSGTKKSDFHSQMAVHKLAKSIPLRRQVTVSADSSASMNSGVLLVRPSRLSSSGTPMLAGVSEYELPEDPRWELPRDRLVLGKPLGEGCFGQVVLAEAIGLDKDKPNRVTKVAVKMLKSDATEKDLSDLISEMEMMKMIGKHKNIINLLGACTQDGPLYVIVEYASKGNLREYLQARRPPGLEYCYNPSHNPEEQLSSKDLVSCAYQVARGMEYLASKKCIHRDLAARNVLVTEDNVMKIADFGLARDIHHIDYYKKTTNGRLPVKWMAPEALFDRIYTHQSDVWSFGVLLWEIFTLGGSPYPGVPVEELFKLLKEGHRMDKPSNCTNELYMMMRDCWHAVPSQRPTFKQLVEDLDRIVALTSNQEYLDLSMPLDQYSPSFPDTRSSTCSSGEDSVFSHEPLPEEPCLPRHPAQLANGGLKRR

FGFR3 = FGFR3 (UniProt P22607); assay: as above
Fer (mouse) = assay: as above
Fes = Fes (UniProt P07332); assay: as above
Sequence of Fes (P07332 whole entry, looked up): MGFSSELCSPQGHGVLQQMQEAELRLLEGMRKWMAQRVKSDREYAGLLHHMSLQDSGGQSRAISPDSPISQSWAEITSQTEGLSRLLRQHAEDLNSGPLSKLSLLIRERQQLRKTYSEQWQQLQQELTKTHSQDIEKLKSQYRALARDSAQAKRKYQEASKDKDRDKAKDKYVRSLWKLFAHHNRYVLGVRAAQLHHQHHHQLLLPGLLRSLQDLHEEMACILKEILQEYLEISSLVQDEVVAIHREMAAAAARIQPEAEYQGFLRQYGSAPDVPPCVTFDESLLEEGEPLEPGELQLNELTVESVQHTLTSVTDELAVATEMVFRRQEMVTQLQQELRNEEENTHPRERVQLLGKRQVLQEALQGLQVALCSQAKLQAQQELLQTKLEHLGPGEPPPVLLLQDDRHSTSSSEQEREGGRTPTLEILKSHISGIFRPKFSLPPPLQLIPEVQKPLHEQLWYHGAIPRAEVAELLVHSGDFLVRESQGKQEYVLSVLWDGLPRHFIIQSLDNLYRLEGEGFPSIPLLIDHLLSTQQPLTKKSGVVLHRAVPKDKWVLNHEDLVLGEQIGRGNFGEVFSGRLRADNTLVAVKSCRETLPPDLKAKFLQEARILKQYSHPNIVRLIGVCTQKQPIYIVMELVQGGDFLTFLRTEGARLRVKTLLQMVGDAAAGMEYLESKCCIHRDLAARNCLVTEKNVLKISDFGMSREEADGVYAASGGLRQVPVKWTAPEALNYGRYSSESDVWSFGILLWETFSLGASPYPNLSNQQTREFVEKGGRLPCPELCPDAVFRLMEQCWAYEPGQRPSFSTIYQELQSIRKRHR

Fyn = Fyn (UniProt P06241); assay: as above
Sequence of Fyn (P06241 whole entry, looked up): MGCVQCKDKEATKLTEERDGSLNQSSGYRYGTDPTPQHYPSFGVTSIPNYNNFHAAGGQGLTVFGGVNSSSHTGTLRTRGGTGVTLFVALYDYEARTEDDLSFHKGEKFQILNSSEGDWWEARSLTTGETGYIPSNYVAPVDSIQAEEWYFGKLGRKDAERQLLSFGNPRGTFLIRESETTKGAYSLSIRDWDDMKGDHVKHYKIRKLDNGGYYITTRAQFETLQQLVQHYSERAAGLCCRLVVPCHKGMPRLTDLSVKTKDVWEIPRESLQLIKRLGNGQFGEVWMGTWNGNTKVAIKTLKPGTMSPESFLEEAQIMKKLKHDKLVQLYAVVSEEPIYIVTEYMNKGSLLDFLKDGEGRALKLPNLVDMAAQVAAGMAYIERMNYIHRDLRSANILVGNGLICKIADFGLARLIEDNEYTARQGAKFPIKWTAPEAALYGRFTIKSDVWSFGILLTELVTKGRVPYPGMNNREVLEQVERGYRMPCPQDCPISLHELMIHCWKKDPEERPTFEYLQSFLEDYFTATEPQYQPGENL

Hck = Hck (UniProt P08631); assay: as above
Sequence of Hck (P08631 whole entry, looked up): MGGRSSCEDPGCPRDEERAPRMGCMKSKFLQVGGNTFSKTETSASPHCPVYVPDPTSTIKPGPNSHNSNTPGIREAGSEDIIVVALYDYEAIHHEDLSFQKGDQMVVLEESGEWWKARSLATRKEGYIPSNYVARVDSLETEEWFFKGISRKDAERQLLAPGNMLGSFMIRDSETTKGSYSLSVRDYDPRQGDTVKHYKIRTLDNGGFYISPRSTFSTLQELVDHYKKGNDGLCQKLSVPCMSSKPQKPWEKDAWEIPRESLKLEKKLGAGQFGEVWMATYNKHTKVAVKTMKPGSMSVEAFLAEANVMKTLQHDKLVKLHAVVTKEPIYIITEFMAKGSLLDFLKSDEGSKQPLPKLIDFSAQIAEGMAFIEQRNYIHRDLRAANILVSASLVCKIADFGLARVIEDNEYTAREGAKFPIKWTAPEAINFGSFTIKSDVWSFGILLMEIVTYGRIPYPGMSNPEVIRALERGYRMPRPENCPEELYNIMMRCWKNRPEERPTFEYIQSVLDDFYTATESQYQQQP

Jak2 = Jak2 (UniProt O60674); assay: as above
Sequence of Jak2 (O60674 whole entry, looked up): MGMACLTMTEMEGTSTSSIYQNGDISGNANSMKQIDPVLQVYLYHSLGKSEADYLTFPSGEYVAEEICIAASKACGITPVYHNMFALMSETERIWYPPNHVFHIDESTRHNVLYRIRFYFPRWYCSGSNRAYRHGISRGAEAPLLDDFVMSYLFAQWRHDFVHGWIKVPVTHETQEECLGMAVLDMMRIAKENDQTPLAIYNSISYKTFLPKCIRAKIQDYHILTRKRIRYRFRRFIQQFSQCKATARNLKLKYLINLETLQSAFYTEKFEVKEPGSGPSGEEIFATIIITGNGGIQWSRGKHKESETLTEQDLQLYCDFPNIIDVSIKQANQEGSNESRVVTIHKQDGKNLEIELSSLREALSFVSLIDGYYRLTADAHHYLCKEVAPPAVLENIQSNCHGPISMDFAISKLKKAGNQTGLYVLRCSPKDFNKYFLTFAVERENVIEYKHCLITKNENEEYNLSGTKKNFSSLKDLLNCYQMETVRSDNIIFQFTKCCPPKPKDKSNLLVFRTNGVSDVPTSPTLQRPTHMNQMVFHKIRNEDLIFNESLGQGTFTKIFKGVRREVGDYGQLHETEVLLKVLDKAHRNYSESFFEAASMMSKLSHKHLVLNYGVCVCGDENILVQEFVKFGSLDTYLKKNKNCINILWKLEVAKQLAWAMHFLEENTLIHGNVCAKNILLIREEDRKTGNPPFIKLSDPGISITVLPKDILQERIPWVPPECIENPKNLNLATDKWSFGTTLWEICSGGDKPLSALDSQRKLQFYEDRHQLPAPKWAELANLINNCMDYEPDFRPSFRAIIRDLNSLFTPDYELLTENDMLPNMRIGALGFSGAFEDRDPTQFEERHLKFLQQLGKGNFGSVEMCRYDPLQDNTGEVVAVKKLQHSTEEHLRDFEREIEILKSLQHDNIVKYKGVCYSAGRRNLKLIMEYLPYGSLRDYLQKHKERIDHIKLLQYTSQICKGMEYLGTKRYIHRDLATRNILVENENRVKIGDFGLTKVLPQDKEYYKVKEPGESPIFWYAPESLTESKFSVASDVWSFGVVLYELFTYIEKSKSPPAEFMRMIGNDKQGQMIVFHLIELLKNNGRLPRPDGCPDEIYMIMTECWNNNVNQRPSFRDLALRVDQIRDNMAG

MERTK = MERTK (UniProt Q12866); assay: as above
Sequence of MERTK (Q12866 whole entry, looked up): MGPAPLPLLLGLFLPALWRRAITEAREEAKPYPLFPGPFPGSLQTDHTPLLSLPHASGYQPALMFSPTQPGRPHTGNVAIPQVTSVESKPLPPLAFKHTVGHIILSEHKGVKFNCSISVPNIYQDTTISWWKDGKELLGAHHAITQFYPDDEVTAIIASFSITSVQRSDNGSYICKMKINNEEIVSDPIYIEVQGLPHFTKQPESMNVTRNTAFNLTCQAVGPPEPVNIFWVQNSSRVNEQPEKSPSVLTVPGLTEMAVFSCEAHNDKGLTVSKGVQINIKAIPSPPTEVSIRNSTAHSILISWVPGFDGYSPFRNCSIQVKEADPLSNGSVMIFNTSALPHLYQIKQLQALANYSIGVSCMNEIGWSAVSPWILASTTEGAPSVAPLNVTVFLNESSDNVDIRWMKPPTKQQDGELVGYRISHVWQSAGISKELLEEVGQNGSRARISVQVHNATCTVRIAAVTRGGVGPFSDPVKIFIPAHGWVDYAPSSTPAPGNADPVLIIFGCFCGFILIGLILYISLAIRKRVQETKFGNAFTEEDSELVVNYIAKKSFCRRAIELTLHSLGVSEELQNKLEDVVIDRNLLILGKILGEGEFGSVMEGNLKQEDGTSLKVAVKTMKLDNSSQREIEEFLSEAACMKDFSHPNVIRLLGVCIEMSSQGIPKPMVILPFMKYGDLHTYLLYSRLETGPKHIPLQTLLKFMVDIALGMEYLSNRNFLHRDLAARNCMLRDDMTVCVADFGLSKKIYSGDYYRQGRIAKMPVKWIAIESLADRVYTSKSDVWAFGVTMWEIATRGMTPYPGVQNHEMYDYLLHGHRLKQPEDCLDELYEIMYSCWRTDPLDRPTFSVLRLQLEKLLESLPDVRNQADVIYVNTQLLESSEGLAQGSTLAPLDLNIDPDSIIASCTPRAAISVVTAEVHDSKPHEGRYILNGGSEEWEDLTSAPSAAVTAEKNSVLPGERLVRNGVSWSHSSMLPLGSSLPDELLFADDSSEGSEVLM

c-Abl (mouse) = assay: as above
c-Src = assay: as above
Grb2 SH2 = Grb2 SH2 (UniProt P62993); assay: SH2 binding enrichment of the phosphorylated peptide, bacterial display (enrichment ratio); higher = better substrate or ligand; peptides without Tyr show the background
Sequence of Grb2 SH2 (P62993 whole entry, looked up): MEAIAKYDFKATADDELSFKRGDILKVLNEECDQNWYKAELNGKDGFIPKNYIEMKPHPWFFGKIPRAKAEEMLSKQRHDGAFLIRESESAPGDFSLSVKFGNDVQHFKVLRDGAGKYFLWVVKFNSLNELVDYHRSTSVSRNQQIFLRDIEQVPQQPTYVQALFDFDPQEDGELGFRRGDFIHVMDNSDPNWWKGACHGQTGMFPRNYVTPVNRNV

SHP2-C SH2 = assay: as above
c-Src SH2 = assay: as above
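Throughout, for SH2 binding enrichment of the phosphorylated peptide, bacterial display: peptide library displayed on the E. coli surface as eCPX fusions, selected cells deep-sequenced, score is each peptide's frequency after selection divided by its frequency in the input.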
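Throughout, for phosphorylation enrichment, bacterial display: 11-residue human phosphosite peptides and single-mutation variants displayed on the E. coli surface, counted by deep sequencing, each peptide's frequency after selection divided by its frequency in the unselected input library; frequency after pTyr selection over input frequency; kinase dosed for 20-30% of maximal phosphorylation in three min.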

Sequence | phosphorylation enrichment (AncSZ) | phosphorylation enrichment (EPHB1) | phosphorylation enrichment (EPHB2) | phosphorylation enrichment (FGFR1) | phosphorylation enrichment (FGFR3) | phosphorylation enrichment (Fer (mouse)) | phosphorylation enrichment (Fes) | phosphorylation enrichment (Fyn) | phosphorylation enrichment (Hck) | phosphorylation enrichment (Jak2) | phosphorylation enrichment (MERTK) | phosphorylation enrichment (c-Abl (mouse)) | phosphorylation enrichment (c-Src) | SH2 binding enrichment (Grb2 SH2) | SH2 binding enrichment (SHP2-C SH2) | SH2 binding enrichment (c-Src SH2)
NLDRFYQQVTK [SEC16A_Y1041] | 0.734 | 0.516 | 0.531 | 0.45 | 0.574 | 0.621 | 0.766 | 0.43 | 0.599 | 0.639 | 0.58 | 0.587 | 0.498 | 0.862 | 0.628 | 2.6
NNPAFYVLEGV [INPPL1_Y987_YF] | 0.956 | 0.5 | 0.581 | 0.653 | 0.612 | 0.42 | 1 | 0.699 | 0.485 | 0.87 | 0.554 | 0.616 | 0.638 | 0.768 | 0.693 | 0.682
NNRVFYGNSDC [RS1_Y177_R182C] | 0.954 | 0.489 | 0.486 | 0.467 | 0.62 | 0.432 | 0.863 | 0.434 | 0.429 | 0.862 | 0.369 | 0.742 | 0.381 | 1.16 | 0.811 | 0.613
NPETCYQKLKK [TK2_Y190_R192K] | 0.906 | 0.583 | 0.451 | 0.444 | 0.774 | 0.509 | 1.07 | 0.428 | 0.583 | 0.921 | 0.386 | 0.765 | 0.425 | 0.829 | 0.814 | 0.783
NQNIGYKLGHR [KCNN3_Y268] | 0.402 | 0.324 | 0.303 | 0.339 | 0.358 | 0.322 | 0.49 | 0.361 | 0.396 | 0.391 | 0.344 | 0.313 | 0.398 | 1 | 0.782 | 0.481
NRLTDYYEPLL [BBS10_Y536] | 2.64 | 8.92 | 6.55 | 11 | 7.93 | 2.11 | 0.826 | 1.03 | 3.28 | 1.63 | 3.6 | 1.61 | 1.33 | 0.788 | 0.755 | 1.93
NSNSDYVDILP [SH2D1B_Y127_V130I] | 1.85 | 3.31 | 3.01 | 3.99 | 3.11 | 0.682 | 1.22 | 0.514 | 0.623 | 1.09 | 0.6 | 1 | 0.573 | 0.788 | 0.503 | 0.571
NSRYTCKLEVK [USH2A_Y3747_Y3747C] | 1.21 | 0.678 | 0.57 | 0.471 | 0.885 | 0.501 | 1.45 | 0.407 | 0.471 | 1.19 | 0.387 | 0.921 | 0.441 | 0.808 | 0.626 | 0.449
NTDETYSIDNE [TUBB2B_Y200_C201S] | 1.27 | 0.622 | 0.632 | 0.551 | 0.715 | 0.63 | 1.35 | 0.696 | 0.694 | 1.23 | 0.5 | 0.886 | 0.726 | 0.761 | 0.547 | 0.421
NVGGKYSYLKV [GRM3_Y478] | 0.625 | 0.415 | 0.39 | 0.449 | 0.476 | 0.446 | 0.65 | 0.358 | 0.515 | 0.635 | 0.448 | 0.524 | 0.351 | 1.08 | 1.43 | 2.27
NVTRKYSRQIL [MAP3K2_Y463_T464S] | 0.425 | 0.356 | 0.317 | 0.363 | 0.352 | 0.402 | 0.446 | 0.491 | 0.361 | 0.417 | 0.344 | 0.399 | 0.403 | 1.06 | 0.607 | 0.508
NVVHEYSSELE [FGB_Y172_N170H] | 1.02 | 0.544 | 0.656 | 0.472 | 0.705 | 0.519 | 1.1 | 0.436 | 0.481 | 1.02 | 0.473 | 0.987 | 0.649 | 0.908 | 0.637 | 1.48
NWGKKYPTCNS [PTPRZ1_Y53] | 0.771 | 0.507 | 0.558 | 0.459 | 0.603 | 0.485 | 0.978 | 0.523 | 0.463 | 0.85 | 0.43 | 0.839 | 0.435 | 1.06 | 1.03 | 0.787
NYYDTCIKTCL [IQGAP2_Y1445_Y1445C] | 1.3 | 7.47 | 2.32 | 7.57 | 5.45 | 1.05 | 1.07 | 1.52 | 1.51 | 1.17 | 5.87 | 0.894 | 1.16 | 0.856 | 0.706 | 3.21
PADCRYYAFPQ [GAMT_Y222] | 3.91 | 12.1 | 12.2 | 10.9 | 8.15 | 10.4 | 1.7 | 2.3 | 3.84 | 6.5 | 14.4 | 5.14 | 4.71 | 0.898 | 0.847 | 3.02
PDKRIYQFTAA [SKAP2_Y197] | 0.73 | 0.779 | 0.553 | 0.476 | 0.497 | 0.769 | 0.708 | 0.566 | 0.578 | 0.651 | 0.999 | 0.47 | 0.729 | 0.82 | 0.57 | 0.645
